The stoichiometry N is a count of units in the complex or per binding partner.

The record followed here is publication PMC9178029, “The structure of EXTL3 helps to explain the different roles of bi-domain exostosins in heparan sulfate synthesis” (Nature Communications, 2022).

The series deals with the molecule itself. The series can be described thus: cryo-EM structure; single-particle cryo-EM of purified EXTL3ΔN at 0.1-0.4 mg/ml, C2 symmetry; apo (2.4 Å) and with 10 mM UDP and 2.5 mM MnCl2 (2.9 Å); buffer 50 mM Tris-HCl pH 6.8, 100 mM NaCl, 50 mM KCl.

B1: EXTL3ΔN, soluble form of human exostosin-like 3 (EXTL3) lacking the first 51 amino acids (enzyme, UniProt O43909 52-919, looked up)
chain: TTLDEADEAGKRIFGPRVGNELCEVKHVLDLCRIRESVSEELLQLEAKRQELNSEIAKLNLKIEACKKSIENAKQDLLQLKNVISQTEHSYKELMAQNQPKLSLPIRLLPEKDDAGLPPPKATRGCRLHNCFDYSRCPLTSGFPVYVYDSDQFVFGSYLDPLVKQAFQATARANVYVTENADIACLYVILVGEMQEPVVLRPAELEKQLYSLPHWRTDGHNHVIINLSRKSDTQNLLYNVSTGRAMVAQSTFYTVQYRPGFDLVVSPLVHAMSEPNFMEIPPQVPVKRKYLFTFQGEKIESLRSSLQEARSFEEEMEGDPPADYDDRIIATLKAVQDSKLDQVLVEFTCKNQPKPSLPTEWALCGEREDRLELLKLSTFALIITPGDPRLVISSGCATRLFEALEVGAVPVVLGEQVQLPYQDMLQWNEAALVVPKPRVTEVHFLLRSLSDSDLLAMRRQGRFLWETYFSTADSIFNTVLAMIRTRIQIPAAPIREEAAAEIPHRSGKAAGTDPNMADNGDLDLGPVETEPPYASPRYLRNFTLTVTDFYRSWNCAPGPFHLFPHTPFDPVLPSEAKFLGSGTGFRPIGGGAGGSGKEFQAALGGNVPREQFTVVMLTYEREEVLMNSLERLNGLPYLNKVVVVWNSPKLPSEDLLWPDIGVPIMVVRTEKNSLNNRFLPWNEIETEAILSIDDDAHLRHDEIMFGFRVWREARDRIVGFPGRYHAWDIPHQSWLYNSNYSCELSMVLTGAAFFHKYYAYLYSYVMPQAIRDMVDEYINCEDIAMNFLVSHITRKPPIKVTSRWTFRCPGCPQALSHDDSHFHERHKCINFFVKVYGYMPLLYTQFRVDSVLFKTRLPHDKTKCFKFI
modifications: partial N-glycans modelled at Asn592 and Asn790; intermolecular disulfide bridges between Cys793 and Cys915
notes: human exostosin-like 3 (EXTL3), amino acids 52-919; holds the predicted coiled coil, the GT47 domain, the inter-domain linker and the GT64 domain; lacks the transmembrane helix; Only the 170 kDa globular part (GT47, linker, GT64) is seen in the map; the coiled coil is not visible; also called EXTL3∆N; secretory EXTL3∆N
As to B1, the “stoichiometry N” value is 2.
